Test results as given in ChEMBL document CHEMBL1132365, “A multisubstrate adduct inhibitor of AICAR transformylase” (J Med Chem, 1999).

Columns and labels:
[1] = substrate: NC1=NC(=O)C2N=C(CN(C=O)c3ccc(C(=O)N[C@H](CCC(=O)O)C(=O)O)cc3)C=CC2N1; test: (§1) Substrate specificity towards AICAR formyltransferase
[2] = substrate: NC1=NC(=O)C2N[C@@H](CN(C=O)c3ccc(C(=O)N[C@H](CCC(=O)O)C(=O)O)cc3)CNC2N1; test: as §1

B1: Bifunctional purine biosynthesis protein ATIC (Homo sapiens), P31939 (protein)
chain: MAPGQLALFSVSDKTGLVEFARNLTALGLNLVASGGTAKALRDAGLAVRDVSELTGFPEMLGGRVKTLHPAVHAGILARNIPEDNADMARLDFNLIRVVACNLYPFVKTVASPGVTVEEAVEQIDIGGVTLLRAAAKNHARVTVVCEPEDYVVVSTEMQSSESKDTSLETRRQLALKAFTHTAQYDEAISDYFRKQYSKGVSQMPLRYGMNPHQTPAQLYTLQPKLPITVLNGAPGFINLCDALNAWQLVKELKEALGIPAAASFKHVSPAGAAVGIPLSEDEAKVCMVYDLYKTLTPISAAYARARGADRMSSFGDFVALSDVCDVPTAKIISREVSDGIIAPGYEEEALTILSKKKNGNYCVLQMDQSYKPDENEVRTLFGLHLSQKRNNGVVDKSLFSNVVTKNKDLPESALRDLIVATIAVKYTQSNSVCYAKNGQVIGIGAGQQSRIHCTRLAGDKANYWWLRHHPQVLSMKFKTGVKRAEISNAIDQYVTGTIGEDEDLIKWKALFEEVPELLTEAEKKEWVEKLTEVSISSDAFFPFRDNVDRAKRSGVAYIAAPSGSAADKVVIEACDELGIILAHTNLRLFHH
Km [1]: 102 µM | Km [2]: 68 µM
